# ± gives the standard deviation of the averaged measurements.
# Assay: total protein half-life in vivo (active degradation + dilution); higher = more stable protein
# [1] = E. coli NCM3722 delta-clpP delta-lon delta-hslV, growth: N-lim chemostat, doubling time 6 h
# [2] = E. coli NCM3722 delta-clpP, growth: N-lim chemostat, doubling time 6 h
# [3] = E. coli NCM3722 delta-hslV, growth: N-lim chemostat, doubling time 6 h
# [4] = E. coli NCM3722 delta-smpB, growth: N-lim chemostat, doubling time 6 h
# [5] = wild type E. coli NCM3722, growth: C-lim chemostat, doubling time 3 h
# [6] = wild type E. coli NCM3722, growth: C-lim chemostat, doubling time 12 h
# [7] = wild type E. coli NCM3722, growth: N-lim chemostat, doubling time 6 h
# [8] = wild type E. coli NCM3722, growth: N-lim chemostat, doubling time 12 h
# [9] = wild type E. coli NCM3722, growth: P-lim chemostat, doubling time 6 h
# [10] = wild type E. coli NCM3722, growth: P-lim chemostat, doubling time 12 h
# [11] = E. coli NCM3722 delta-lon, growth: N-lim chemostat, doubling time 6 h
# [12] = wild type E. coli NCM3722, growth: C-lim chemostat, doubling time 6 h
Sequence,total protein half-life in vivo [1],total protein half-life in vivo [2],total protein half-life in vivo [3],total protein half-life in vivo [4],total protein half-life in vivo [5],total protein half-life in vivo [6],total protein half-life in vivo [7],total protein half-life in vivo [8],total protein half-life in vivo [9],total protein half-life in vivo [10],total protein half-life in vivo [11],total protein half-life in vivo [12]
MRLGTFHKKKRFYINKIKINFLSFLFRNKINNQITDPAQVKSCLIIHDNNKLGDLIVLSSIYRELYSKGVKITLLTNRKGGEFLSNNKNIFEFCIKESTGFLEMLTLCKHLRDLQFDIVLDPFETMPSFKHSLILSSLKDSYILGFDHWYKRYYSFYHPHDECLKEHMSTRAIEILKHIYGEGKFSTNYDLHLPVDVEDKIKEFIGDTRIVIINPLGAKKICRLTFEQIKVIYQEVKTHFENYRIIFTGLPQDLLTIPILEIETLPFDEFIYTVALTKYSDFVISVDTALVHIAAAYHKPTLAFYPNSRTPEYPSHLIWSPNHHKSIQIVSPTYTVKDIDTETLTNSVKRLSCIDKK,5.5 ± 0.61 h,6.56 ± 1.5 h,5.9 ± 0.57 h,5.44 ± 0.1 h,2.96 ± 0.088 h,11.5 ± 0.51 h,5.67 ± 0.47 h,12.8 ± 1.3 h,5.23 ± 0.19 h,12.2 ± 0.22 h,,
MRLIITFLMAWCLSWGAYAATAPDSKQITQELEQAKAAKPAQPEVVEALQSALNALEERKGSLERIKQYQQVIDNYPKLSATLRAQLNNMRDEPRSVSPGMSTDALNQEILQVSSQLLDKSRQAQQEQERAREIADSLNQLPQQQTDARRQLNEIERRLGTLTGNTPLNQAQNFALQSDSARLKALVDELELAQLSANNRQELARLRSELAEKESQQLDAYLQALRNQLNSQRQLEAERALESTELLAENSADLPKDIVAQFKINRELSAALNQQAQRMDLVASQQRQAASQTLQVRQALNTLREQSQWLGSSNLLGEALRAQVARLPEMPKPQQLDTEMAQLRVQRLRYEDLLNKQPLLRQIHQADGQPLTAEQNRILEAQLRTQRELLNSLLQGGDTLLLELTKLKVSNGQLEDALKEVNEATHRYLFWTSDVRPMTIAWPLEIAQDLRRLISLDTFSQLGKASVMMLTSKETILPLFGALILVGCSIYSRRYFTRFLERSAAKVGKVTQDHFWLTLRTLFWSILVASPLPVLWMTLGYGLREAWPYPLAVAIGDGVTATVPLLWVVMICATFARPNGLFIAHFGWPRERVSRGMRYYLMSIGLIVPLIMALMMFDNLDDREFSGSLGRLCFILICGALAVVTLSLKKAGIPLYLNKEGSGDNITNHMLWNMMIGAPLVAILASAVGYLATAQALLARLETSVAIWFLLLVVYHVIRRWMLIQRRRLAFDRAKHRRAEMLAQRARGEEEAHHHSSPEGAIEVDESEVDLDAISAQSLRLVRSILMLIALLSVIVLWSEIHSAFGFLENISLWDVTSTVQGVESLEPITLGAVLIAILVFIITTQLVRNLPALLELAILQHLDLTPGTGYAITTITKYLLMLIGGLVGFSMIGIEWSKLQWLVAALGVGLGFGLQEIFANFISGLIILFEKPIRIGDTVTIRDLTGSVTKINTRATTISDWDRKEIIVPNKAFITEQFINWSLSDSVTRVVLTIPAPADANSEEVTEILLTAARRCSLVIDNPAPEVFLVDLQQGIQIFELRIYAAEMGHRMPLRHEIHQLILAGFHAHGIDMPFPPFQMRLESLNGKQTGRTLTSAGKGRQAGSL,6.45 ± 0.14 h,6.87 ± 1.2 h,6.3 ± 0.62 h,5.67 ± 0.52 h,3.35 ± 0.12 h,13.1 ± 1.4 h,6.49 ± 0.46 h,13.3 ± 2.1 h,5.95 ± 0.7 h,12.8 ± 0.24 h,6.27 ± 0.29 h,6.73 ± 0.79 h
MRLTSKGRYAVTAMLDVALNSEAGPVPLADISERQGISLSYLEQLFSRLRKNGLVSSVRGPGGGYLLGKDASSIAVGEVISAVDESVDATRCQGKGGCQGGDKCLTHALWRDLSDRLTGFLNNITLGELVNNQEVLDVSGRQHTHDAPRTRTQDAIDVKLRA [P0AGK8],5.43 ± 0.76 h,2.85 ± 0.1 h,1.38 ± 0.36 h,1.04 ± 0.058 h,1.22 ± 0.076 h,2.04 ± 0.57 h,1.057 ± 0.0037 h,1.37 ± 0.1 h,1.53 ± 0.5 h,2.18 ± 0.6 h,1.43 ± 0.34 h,1.76 ± 0.058 h
MRMNMSDFATFFAVARNQSFRAAGDELGLSSSAISHSIKTLEQRLKIRLFNRTTRSVSLTEAGSNLYERLRPAFDEIQIMLDEMNDFRLTPTGTLKINAARVAARIFLMSLLVGFTREYPDIKVELTTDDSLVDIVQQGFDAGVRLSCIVEKDMISVAIGPPVKLCVAATPEYFARYGKPRHPHDLLNHQCVVFRYPSGKPFHWQFAKELEIAVAGNIILDDVDAELEAVLMGAGIGYLLYEQIKEYLDTGRLECVLEDWSTERPGFQIYYPNRQYMSCGLRAFLDYVKTGQICQSQRHRPQ,5.54 ± 0.06 h,,,,,,,,,,,
MRQKETTATTRFSLLPGSITRFFLLLIIVLLVTMGVMVQSAVNAWLKDKSYQIVDITHAIQKRVDNWRYVTWQIYDNIAATTSPSSGEGLQETRLKQDVYYLEKPRRKTEALIFGSHDNSTLEMTQRMSTYLDTLWGAENVPWSMYYLNGQDNSLVLISTLPLKDLTSGFKESTVSDIVDSRRAEMLQQANALDERESFSNMRRLAWQNGHYFTLRTTFNQPGHLATVVAFDLPINDLIPPGMPLDSFRLEPDATATGNNDNEKEGTDSVSIHFNSTKIEISSALNSTDMRLVWQVPYGTLLLDTLQNILLPLLLNIGLLALALFGYTTFRHFSSRSTENVPSTAVNNELRILRAINEEIVSLLPLGLLVHDQESNRTVISNKIADHLLPHLNLQNITTMAEQHQGIIQATINNELYEIRMFRSQVAPRTQIFIIRDQDREVLVNKKLKQAQRLYEKNQQGRMIFMKNIGDALKEPAQSLAESAAKLNAPESKQLANQADVLVRLVDEIQLANMLADDSWKSETVLFSVQDLIDEVVPSVLPAIKRKGLQLLINNHLKAHDMRRGDRDALRRILLLLMQYAVTSTQLGKITLEVDQDESSEDRLTFRILDTGEGVSIHEMDNLHFPFINQTQNDRYGKADPLAFWLSDQLARKLGGHLNIKTRDGLGTRYSVHIKMLAADPEVEEEEERLLDDVCVMVDVTSAEIRNIVTRQLENWGATCITPDERLISQDYDIFLTDNPSNLTASGLLLSDDESGVREIGPGQLCVNFNMSNAMQEAVLQLIEVQLAQEEVTESPLGGDENAQLHASGYYALFVDTVPDDVKRLYTEAATSDFAALAQTAHRLKGVFAMLNLVPGKQLCETLEHLIREKDVPGIEKYISDIDSYVKSLL,6.226 ± 0.058 h,,6.72 ± 0.27 h,6.32 ± 0.7 h,3.25 ± 0.077 h,11.13 ± 0.09 h,6.21 ± 0.15 h,12.6 ± 0.92 h,7 ± 0.88 h,12.9 ± 0.27 h,6.86 ± 0.49 h,6.3 ± 0.57 h
MRQVLSSLLVIAGLVSGQAIAAPESPPHADIRDSGFVYCVSGQVNTFNPSKASSGLIVDTLAAQFYDRLLDVDPYTYRLMPELAESWEVLDNGATYRFHLRRDVPFQKTDWFTPTRKMNADDVVFTFQRIFDRNNPWHNVNGSNFPYFDSLQFADNVKSVRKLDNHTVEFRLAQPDASFLWHLATHYASVMSAEYARKLEKEDRQEQLDRQPVGTGPYQLSEYRAGQFIRLQRHDDFWRGKPLMPQVVVDLGSGGTGRLSKLLTGECDVLAWPAASQLSILRDDPRLRLTLRPGMNVAYLAFNTAKPPLNNPAVRHALALAINNQRLMQSIYYGTAETAASILPRASWAYDNEAKITEYNPAKSREQLKSLGLENLTLKLWVPTRSQAWNPSPLKTAELIQADMAQVGVKVVIVPVEGRFQEARLMDMSHDLTLSGWATDSNDPDSFFRPLLSCAAIHSQTNLAHWCDPKFDSVLRKALSSQQLAARIEAYDEAQSILAQELPILPLASSLRLQAYRYDIKGLVLSPFGNASFAGVYREKQDEVKKP,,,6.48 ± 0.7 h,5.939 ± 0.032 h,3.129 ± 0.013 h,11.05 ± 0.028 h,6.39 ± 0.57 h,13.5 ± 0.91 h,6.18 ± 0.2 h,12 ± 1.2 h,6.22 ± 0.64 h,5.88 ± 0.23 h
MRRLLSVAPVLLWLITPLAFAQLPGITSQPLPGGGQSWSLPVQTLVFITSLTFIPAILLMMTSFTRIIIVFGLLRNALGTPSAPPNQVLLGLALFLTFFIMSPVIDKIYVDAYQPFSEEKISMQEALEKGAQPLREFMLRQTREADLGLFARLANTGPLQGPEAVPMRILLPAYVTSELKTAFQIGFTIFIPFLIIDLVIASVLMALGMMMVPPATIALPFKLMLFVLVDGWQLLVGSLAQSFYS [P0AC05],,,,,2.76 h,9.42 h,,,,,,6.05 h
MRRLRFSPRSSFARTLLLIVTLLFASLVTTYLVVLNFAILPSLQQFNKVLAYEVRMLMTDKLQLEDGTQLVVPPAFRREIYRELGISLYSNEAAEEAGLRWAQHYEFLSHQMAQQLGGPTEVRVEVNKSSPVVWLKTWLSPNIWVRVPLTEIHQGDFSPLFRYTLAIMLLAIGGAWLFIRIQNRPLVDLEHAALQVGKGIIPPPLREYGASEVRSVTRAFNHMAAGVKQLADDRTLLMAGVSHDLRTPLTRIRLATEMMSEQDGYLAESINKDIEECNAIIEQFIDYLRTGQEMPMEMADLNAVLGEVIAAESGYEREIETALYPGSIEVKMHPLSIKRAVANMVVNAARYGNGWIKVSSGTEPNRAWFQVEDDGPGIAPEQRKHLFQPFVRGDSARTISGTGLGLAIVQRIVDNHNGMLELGTSERGGLSIRAWLPVPVTRAQGTTKEG [P0AEJ4],6.372 ± 0.049 h,7.33 ± 0.82 h,6.19 ± 0.26 h,6.14 ± 0.39 h,3.2 ± 0.14 h,,6.35 ± 0.27 h,13.1 ± 0.43 h,6.87 ± 0.93 h,14.12 ± 0.043 h,6.19 ± 0.32 h,6.16 ± 0.14 h
MRRTFIKKEGVVITTLARYLLGEKCGNRLKTIDELANECRSSVGLTQAALKTLESSGAIRIERRGRNGSYLVEMDNKALLTHVDINNVVCAMPLPYTRLYEGLASGLKAQFDGIPFYYAHMRGADIRVECLLNGVYDMAVVSRLAAESYLTQKGLCLALELGPHTYVGEHQLICRKGESANVKRVGLDNRSADQKIMTDVFFGGSDVERVDLSYHESLQRIVKGDVDAVIWNVVAENELTMLGLEATPLTDDPRFLQATEAVVLTRVDDYPMQQLLRAVVDKHALLAHQQRVVSGEQEPSY,6.2 ± 0.085 h,5.94 ± 0.07 h,5.34 ± 0.15 h,4.78 ± 0.41 h,2.78 ± 0.093 h,7.63 ± 2.6 h,4.68 ± 0.65 h,9.45 ± 0.82 h,5.166 ± 0.0084 h,9.42 ± 0.63 h,5.75 ± 0.52 h,5.3 ± 0.1 h
MRRTFTAEEKASVFELWKNGTGFSEIANILGSKPGTIFTMLRDTGGIKPHERKRAVAHLTLSEREEIRAGLSAKMSIRAIATALNRSPSTISREVQRNRGRRYYKAVDANNRANRMAKRPKPCLLDQNLPLRKLVLEKLEMKWSPEQISGWLRRTKPRQKTLRISPETIYKTLYFRSREALHHLNIQHLRRSHSLRHGRRHTRKGERGTINIVNGTPIHERSRNIDNRRSLGHWEGDLVSGTKNSHIATLVDRKSRYTIILRLRGKDSVSVNQALTDKFLSLPSELRKSLTWDRGMELARHLEFTVSTGVKVYFCDPQSPWQRGTNENTNGLIRQYFPKKTCLAQYTQHELDLVAAQLNNRPRKTLKFKTPKEIIERGVALTD [P0CF90],5.45 ± 0.8 h,,,,,,,,,,,
MRSKYIVIEGLEGAGKTTARNVVVETLEQLGIRDMVFTREPGGTQLAEKLRSLVLDIKSVGDEVITDKAEVLMFYAARVQLVETVIKPALANGTWVIGDRHDLSTQAYQGGGRGIDQHMLATLRDAVLGDFRPDLTLYLDVTPEVGLKRARARGELDRIEQESFDFFNRTRARYLELAAQDKSIHTIDATQPLEAVMDAIRTTVTHWVKELDA [P0A720],4.32 ± 0.51 h,4 ± 0.41 h,4.4 ± 0.41 h,4.25 ± 0.13 h,3.059 ± 0.011 h,9.9341 ± 0.0012 h,3.93 ± 0.26 h,6.63 ± 0.1 h,5.59 ± 0.5 h,11.3 ± 0.12 h,4.52 ± 0.32 h,5.11 ± 0.073 h
MRSLADFEFNKAPLCEGMILACEAIRRDFPSQDVYDELERLVSLAKEEISQLLPLEEQLEKLIALFYGDWGFKASRGVYRLSDALWLDQVLKNRQGSAVSLGAVLLWVANRLDLPLLPVIFPTQLILRIECPDGEIWLINPFNGESLSEHMLDVWLKGNISPSAELFYEDLDEADNIEVIRKLLDTLKASLMEENQMELALRTSEALLQFNPEDPYEIRDRGLIYAQLDCEHVALNDLSYFVEQCPEDPISEMIRAQINNIAHKHIVLH [P0AGM5],,,,,0.281 h,,,,,,,

# Source: the supplement of paper PMC11246515
